In paper PMC8942982, “The role of lysine palmitoylation/myristoylation in the function of the TEAD transcription factors” (Scientific Reports, 2022):

Tests used:
Test in all cases: SPR; biotinylated-Avitagged Sd proteins immobilized on sensor chips; Yki^30-146 or Vg^263-382 as analyte; carried out as previously described (ref. 28)
Conditions in all cases: both partners purified
[1] = molecular target: T1, Scalloped, residues 223-440, Lys350Ala mutant (Lys350Ala^Sd) (Drosophila melanogaster, UniProt P30052 223-440, Lys350Ala, acylated to completion with Myristoyl-Coenzyme A, only on Cys373 (hydroxylamine-sensitive, 100%); biotin on the Avitag)
T1 construct: Scalloped (Sd), Drosophila homolog of human TEAD, UniProtKB P30052, residues 223-440, with Lys350Ala; Mutation introduced into wt^Sd; source: E. coli, purified in a similar manner to wt^Sd, treated with Myristoyl-Coenzyme A
T1 sequence (looked up): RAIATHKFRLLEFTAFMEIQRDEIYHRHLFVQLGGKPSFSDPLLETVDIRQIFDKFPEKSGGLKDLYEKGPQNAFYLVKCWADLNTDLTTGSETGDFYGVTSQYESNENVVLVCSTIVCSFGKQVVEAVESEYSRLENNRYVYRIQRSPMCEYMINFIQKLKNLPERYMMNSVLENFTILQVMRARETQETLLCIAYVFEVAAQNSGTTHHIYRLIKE

[2] = molecular target: T2, Scalloped, residues 223-440, Glu352Gln mutant (Glu352Gln^Sd) (Drosophila melanogaster, UniProt P30052 223-440, Glu352Gln, acylated to completion with Myristoyl-Coenzyme A: predominantly on Lys350 (hydroxylamine-insensitive, 90%), the rest on Cys373 (10%); biotin on the Avitag)
T2 construct: Scalloped (Sd), Drosophila homolog of human TEAD, UniProtKB P30052, residues 223-440, with Glu352Gln; Mutation introduced into wt^Sd; source: E. coli, purified in a similar manner to wt^Sd, treated with Myristoyl-Coenzyme A
T2 sequence (looked up): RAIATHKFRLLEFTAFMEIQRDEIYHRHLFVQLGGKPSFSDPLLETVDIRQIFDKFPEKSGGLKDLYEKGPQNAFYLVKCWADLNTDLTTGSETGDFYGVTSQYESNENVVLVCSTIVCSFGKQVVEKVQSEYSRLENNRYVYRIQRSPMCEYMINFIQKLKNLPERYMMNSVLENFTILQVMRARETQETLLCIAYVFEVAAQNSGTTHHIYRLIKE

[3] = molecular target: T3, Scalloped, residues 223-440, wild type (Sd^223-440) (Drosophila melanogaster, UniProt P30052 223-440, acylated to completion with Myristoyl-Coenzyme A: a mixture acylated on Cys373 (hydroxylamine-sensitive, 47%) or on Lys350 (hydroxylamine-insensitive, 54%); biotin on the Avitag)
T3 construct: Scalloped (Sd), Drosophila homolog of human TEAD, UniProtKB P30052, residues 223-440; also called wt^Sd
T3 sequence (looked up): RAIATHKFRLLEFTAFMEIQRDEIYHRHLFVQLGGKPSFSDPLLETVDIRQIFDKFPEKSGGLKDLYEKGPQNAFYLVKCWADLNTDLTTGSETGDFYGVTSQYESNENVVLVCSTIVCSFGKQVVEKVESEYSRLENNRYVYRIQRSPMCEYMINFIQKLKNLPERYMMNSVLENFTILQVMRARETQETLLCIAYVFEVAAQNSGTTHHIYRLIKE

Binder | Kd [1] | Kd [2] | Kd [3]
Yorkie, residues 30-146 (Yki^30-146) (domain or fragment, Drosophila melanogaster, UniProt Q45VV3 30-146, looked up) SNNLVVRVNQDTDDNLQALFDSVLNPGDAKRPLQLPLRMRKLPNSFFTPPAPSHSRANSADSTYDAGSQSSINIGNKASIVQQPDGQSPIAAIPQLQIQPSPQHSRLAIHHSRARSS | 14 nM | 4.9 nM | 9.5 nM
Vestigial, residues 263-382 (Vg^263-382) (domain or fragment, Drosophila melanogaster, UniProt Q26366 263-382, looked up) ETPMGSGGGGLAGSGQGQAQYLSASCVVFTNYSGDTASQVDEHFSRALNYNNKDSKESSSPMSNRNFPPSFWNSNYVHPIPAPTHHQVSDLYGTATDTGYATDPWVPHAAHYGSYAHAAH | 2.3 nM | 0.37 nM | 0.38 nM
